Assay results taken from patent publication JPH11332594A (dated 1999).

Target: T1, ヒト可溶性CD4 (human soluble CD4 made in Example 1, C-terminal FLAG-tag, expressed in COS7 cells) (human, UniProt P01730 26-396)
T1 construct: extracellular domain; Purified on anti-FLAG-M2 gel; also called ヒトCD4抗原
Assay: SPR, BIA-core2000; human soluble CD4 amine-coupled to CM5 chip, antibody as analyte (50 μg/ml)

B1: 4H5抗体 (anti-human CD4 mouse monoclonal antibody from Mouse-Mouse hybridoma 4H5, FERM P-16807) (antibody, V domains shown)
VH: QVQLQQSGPELVKPGASVKMSCKASGYTFTDYVINWLNQRTGQGLEWIGEIYPGSGSAYYNEMFKGKATLTADKSSNTAYMQLSSLTSEDSAVYFCARRGTGTGFAYWGRGTLVTVSA
VL: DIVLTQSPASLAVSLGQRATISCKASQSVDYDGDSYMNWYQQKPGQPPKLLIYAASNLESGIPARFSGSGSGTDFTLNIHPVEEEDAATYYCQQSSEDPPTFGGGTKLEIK
notes: Whole mouse monoclonal antibody from the hybridoma; also called 4H5 antibody; 抗ヒトCD4抗体(4H5抗体)
Kd: 0.808 nM
koff: 5.33e-06 s⁻¹

B2: キメラ4H5抗体 (human-mouse chimeric anti-CD4 antibody expressed from plasmid pG14H5 in COS7 cells) (antibody, V domains shown)
VH: LQQSGPELVKPGASVKMSCKASGYTFTDYVINWLNQRTGQGLEWIGEIYPGSGSAYYNEMFKGKATLTADKSSNTAYMQLSSLTSEDSAVYFCARRGTGTGFAYWGRGTLVTVSA
VL: LTQSPASLAVSLGQRATISCKASQSVDYDGDSYMNWYQQKPGQPPKLLIYAASNLESGIPARFSGSGSGTDFTLNIHPVEEEDAATYYCQQSSEDPPTFGGGTKLEIK
notes: The human light chain constant region is not specified; also called chimeric 4H5 antibody; ヒトマウスキメラ抗CD4抗体
Kd: 1.24 nM
koff: 2.92e-05 s⁻¹
